Results on two molecules are retold here after patent publication US20190233847.

Series [1] addresses cpCas9-1042 circular permutation: residues 1043-1368, (GGS)n linker, then 1-1042 (Streptococcus pyogenes) (UniProt Q99ZW2). The experiment in a line: cell_activity. The following applies: enrichment in RFP repression FACS screen, E. coli.
Series [2] has as its target cpCas9-1250 circular permutation: residues 1251-1368, (GGS)n linker, then 1-1250 (Streptococcus pyogenes) (UniProt Q99ZW2). The experiment in a line: cell_activity. As to conditions: enrichment in RFP repression FACS screen, E. coli.
Series [3] addresses cpCas9-200 circular permutation: residues 201-1368, (GGS)n linker, then 1-200 (Streptococcus pyogenes) (UniProt Q99ZW2). Briefly: cell_activity. As to conditions: enrichment in RFP repression FACS screen, E. coli.
Series [4] addresses cpCas9-311 circular permutation: residues 312-1368, (GGS)n linker, then 1-311 (Streptococcus pyogenes) (UniProt Q99ZW2). The experiment in a line: cell_activity. As to conditions: enrichment in RFP repression FACS screen, E. coli.
The target in series [5] is cpCas9-182 circular permutation: residues 183-1368, (GGS)n linker, then 1-182 (Streptococcus pyogenes) (UniProt Q99ZW2). The experiment in a line: cell_activity. As to conditions: enrichment in RFP repression FACS screen, E. coli.
Series [6] has as its target cpCas9-1283 circular permutation: residues 1284-1368, (GGS)n linker, then 1-1283 (Streptococcus pyogenes) (UniProt Q99ZW2). The experiment in a line: cell_activity. As to conditions: enrichment in RFP repression FACS screen, E. coli.
In series [7] the target is cpCas9-1017 circular permutation: residues 1018-1368, (GGS)n linker, then 1-1017 (Streptococcus pyogenes) (UniProt Q99ZW2). Briefly: cell_activity. As to conditions: enrichment in RFP repression FACS screen, E. coli.
For series [8], the target named is cpCas9-1011 circular permutation: residues 1012-1368, (GGS)n linker, then 1-1011 (Streptococcus pyogenes) (UniProt Q99ZW2). Briefly: cell_activity. The following applies: enrichment in RFP repression FACS screen, E. coli.
The target of series [9] is cpCas9-231 circular permutation: residues 232-1368, (GGS)n linker, then 1-231 (Streptococcus pyogenes) (UniProt Q99ZW2). The experiment in a line: cell_activity. The following applies: enrichment in RFP repression FACS screen, E. coli.
Series [10] addresses cpCas9-271 circular permutation: residues 272-1368, (GGS)n linker, then 1-271 (Streptococcus pyogenes) (UniProt Q99ZW2). The experiment in a line: cell_activity. The following applies: enrichment in RFP repression FACS screen, E. coli.
The target in series [11] is subset of circular permuted dCas9 proteins (CPs) with a TEV linker (ENLYFQ\S) between the N & C termini.

For “RFP-targeting guide RNA ; RFP reporter target”, the binding signal (log2 fold change) in series [1] was 17.8; in series [2], 18.1; in series [3] it was 17.7; in series [4] it was 15.6; in series [5] it was 17.1; in series [6], 18. Besides, the binding signal (log2 fold change) is 17 in [7], 17.3 in series [8], 17.2 in series [9] and 16.7 in series [10].

B1: Tobacco Etch Virus (TEV) protease (protein)
chain: GESLFKGPRDYNPISSTICHLTNESDGHTTSLYGIGFGPFIITNKHLFRRNNGTLLVQSLHGVFKVKNTTTLQQHLIDGRDMIIIRMPKDFPPFPQKLKFREPQREERICLVTTNFQTKSMSSMVSDTSCTFPSSDGIFWKHWIQTKDGQCGSPLVSTRDGFIVGIHSASNFTNTNNYFTSVPKNFMELLTNQEAQQWVSGWRLNADSVLWGGHKVFMSKPEEPFQPVKEATQLMNELVYSQ
As for B1, the “western blot of linker cleavage” value in series [11] is “the CPs were cleaved at the correct location when an active TEV protease was present in the cell”.
